Assay results reported in publication PMC11117632, “Rapid and Sensitive Detection of Inactivated SARS-CoV-2 Virus via Fiber-Optic and Electrochemical Impedance Spectroscopy Based Aptasensors”.

B1: aptamer 6.8 (ssDNA)
DNA: GCAATGGTACGGTACTTCCCGGGGCGGGCTGTCATGCCCATCCTACCGTGACCGCAAAAGTGCACGCTACTTTGCTAA
B2: aptamer 6.9 (ssDNA)
DNA: GCAATGGTACGGTACTTCCATGGCTGGTGCTTGAGGTGTGTGTGGGGGTAGGGCCAAAAGTGCACGCTACTTTGCTAA

Molecular target: SARS-CoV-2 spike protein (SARS-CoV-2, UniProt P0DTC2 14-1213)
Test: ELONA; binding buffer 50 mM HEPES pH 7.4, 100 mM NaCl, 5 mM KCl, 2 mM MgCl2, 1 mM CaCl2; […]
Details: protein: recombinant, chain copies: 3, label: biotin

Binder	binding result (predicted partial stem-loops)	binding result
B1	no binding	
B2		no binding
